Blank lines part the entries; values can stand above or below the binder they belong to.
What was measured:
[1] = target: T1, penicillin-binding protein 1A (PBP1A) (Escherichia coli, UniProt P02918 1-850); assay: cell-based or functional assay
T1 sequence (looked up): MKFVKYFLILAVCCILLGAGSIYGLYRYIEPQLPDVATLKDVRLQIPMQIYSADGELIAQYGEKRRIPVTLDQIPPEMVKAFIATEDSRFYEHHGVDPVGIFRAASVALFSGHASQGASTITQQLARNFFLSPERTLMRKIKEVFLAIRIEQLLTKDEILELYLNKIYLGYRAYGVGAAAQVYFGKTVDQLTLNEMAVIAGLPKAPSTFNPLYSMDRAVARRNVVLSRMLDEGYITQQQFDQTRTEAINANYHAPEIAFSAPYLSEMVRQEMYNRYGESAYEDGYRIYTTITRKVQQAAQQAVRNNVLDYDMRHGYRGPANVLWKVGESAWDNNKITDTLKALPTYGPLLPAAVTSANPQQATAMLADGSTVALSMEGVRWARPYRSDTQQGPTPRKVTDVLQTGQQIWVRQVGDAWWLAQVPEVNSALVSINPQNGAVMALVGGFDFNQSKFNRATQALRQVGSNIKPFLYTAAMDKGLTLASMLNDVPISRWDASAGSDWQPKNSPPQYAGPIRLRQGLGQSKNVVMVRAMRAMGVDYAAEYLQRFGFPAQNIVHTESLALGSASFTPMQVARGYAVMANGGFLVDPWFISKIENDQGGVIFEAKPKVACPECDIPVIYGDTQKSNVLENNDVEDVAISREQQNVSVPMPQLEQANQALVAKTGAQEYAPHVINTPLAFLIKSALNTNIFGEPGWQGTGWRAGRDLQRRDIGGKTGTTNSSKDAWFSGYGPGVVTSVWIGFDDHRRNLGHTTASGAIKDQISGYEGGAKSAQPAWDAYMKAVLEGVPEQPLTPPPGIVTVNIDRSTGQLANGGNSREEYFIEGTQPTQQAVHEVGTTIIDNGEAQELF

[2] = target: T2, penicillin-binding protein 1B (PBP1B) (Escherichia coli, UniProt P02919 1-844); assay: cell-based or functional assay
T2 sequence (looked up): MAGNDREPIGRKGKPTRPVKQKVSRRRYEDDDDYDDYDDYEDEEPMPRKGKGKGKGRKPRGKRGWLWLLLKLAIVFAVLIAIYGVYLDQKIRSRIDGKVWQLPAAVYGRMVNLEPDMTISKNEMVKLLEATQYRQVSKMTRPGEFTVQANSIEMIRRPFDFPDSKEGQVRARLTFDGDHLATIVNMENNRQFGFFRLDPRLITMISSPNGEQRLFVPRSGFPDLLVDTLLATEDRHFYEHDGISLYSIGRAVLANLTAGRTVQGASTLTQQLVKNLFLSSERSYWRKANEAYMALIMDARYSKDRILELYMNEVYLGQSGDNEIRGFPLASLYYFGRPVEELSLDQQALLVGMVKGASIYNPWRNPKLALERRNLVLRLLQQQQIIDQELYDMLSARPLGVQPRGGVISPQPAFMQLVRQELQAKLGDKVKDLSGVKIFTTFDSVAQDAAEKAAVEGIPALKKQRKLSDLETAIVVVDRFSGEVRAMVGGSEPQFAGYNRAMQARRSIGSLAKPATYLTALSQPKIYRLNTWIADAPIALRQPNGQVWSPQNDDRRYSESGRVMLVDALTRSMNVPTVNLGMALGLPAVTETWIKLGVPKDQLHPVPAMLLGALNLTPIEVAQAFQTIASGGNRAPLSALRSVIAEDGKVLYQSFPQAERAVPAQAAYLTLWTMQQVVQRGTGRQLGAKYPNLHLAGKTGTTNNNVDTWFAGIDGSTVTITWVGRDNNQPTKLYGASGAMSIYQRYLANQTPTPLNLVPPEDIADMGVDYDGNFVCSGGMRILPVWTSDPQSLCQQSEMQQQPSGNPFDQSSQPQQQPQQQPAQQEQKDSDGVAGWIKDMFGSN

GTase rate of PBP1A (consumption of fluorescent dansyl-lipid II), fold over PBP1A alone; 0.5 uM PBP1A, 2 uM purified DedD [1]: 1.8 fold
GTase rate of PBP1B (consumption of fluorescent dansyl-lipid II), fold over PBP1B alone; 0.5 uM PBP1B, 2 uM purified DedD [2]: 2.6 fold
B1: His-DedD (natural protein, Escherichia coli, UniProt P09549 1-220, looked up)
chain: MASKFQNRLVGTIVLVALGVIVLPGLLDGQKKHYQDEFAAIPLVPKAGDRDEPDMMPAATQALPTQPPEGAAEEVRAGDAAAPSLDPATIAANNTEFEPEPAPVAPPKPKPVEPPKPKVEAPPAPKPEPKPVVEEKAAPTGKAYVVQLGALKNADKVNEIVGKLRGAGYRVYTSPSTPVQGKITRILVGPDASKDKLKGSLGELKQLSGLSGVVMGYTPN

GTase rate of PBP1B (consumption of fluorescent dansyl-lipid II), fold over PBP1B alone; 0.5 uM PBP1B, 2 uM purified DamX [2]: 2 fold
B2: His-DamX (natural protein, Escherichia coli, UniProt P11557 1-428, looked up)
chain: MDEFKPEDELKPDPSDRRTGRSRQSSERSERTERGEPQINFDDIELDDTDDRRPTRAQKERNEEPEIEEEIDESEDETVDEERVERRPRKRKKAASKPASRQYMMMGVGILVLLLLIIGIGSALKAPSTTSSDQTASGEKSIDLAGNATDQANGVQPAPGTTSAENTQQDVSLPPISSTPTQGQTPVATDGQQRVEVQGDLNNALTQPQNQQQLNNVAVNSTLPTEPATVAPVRNGNASRDTAKTQTAERPSTTRPARQQAVIEPKKPQATVKTEPKPVAQTPKRTEPAAPVASTKAPAATSTPAPKETATTAPVQTASPAQTTATPAAGAKTAGNVGSLKSAPSSHYTLQLSSSSNYDNLNGWAKKENLKNYVVYETTRNGQPWYVLVSGVYASKEEAKKAVSTLPADVQAKNPWAKPLRQVQADLK

— article PMC7642682, “SPOR Proteins Are Required for Functionality of Class A Penicillin-Binding Proteins in Escherichia coli” (mBio, 2020)
